From patent US6361968 come the findings set out here.

One experiment has as its target c-Jun (unmodified) (UniProt P05412). In words: thermal melt of the mixture (FIG. 4).
For experiment [1], the target named is bHLH MAX (unmodified Max) (UniProt P61244). Put plainly: homodimer, dimerization study of FIG. 9.
Experiment [2] addresses c-Myc bHLH protein (murine) (UniProt P01108). In words: heterodimer with c-Myc, dimerization study of FIG. 9.

Sequence of c-Jun (unmodified) (P05412 241-331 limits assumed): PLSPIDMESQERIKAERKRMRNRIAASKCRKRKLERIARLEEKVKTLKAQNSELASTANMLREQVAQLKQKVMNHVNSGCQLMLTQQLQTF
Sequence of c-Myc bHLH protein (murine) (P01108 368-454 limits assumed, form in doubt): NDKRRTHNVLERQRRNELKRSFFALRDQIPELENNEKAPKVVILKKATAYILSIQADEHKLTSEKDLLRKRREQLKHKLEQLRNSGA

As for “0heptad-Fos (c-Fos with the basic region deleted) (designed binder)”, the Tm (usually the temperature at which the thermal transition is half complete) in the experiment with c-Jun (unmodified) was 53 °C.
Consider “bHLH MAX (unmodified Max) (from UniProt P61244 23-113)”, for which the values for the Kd in experiment [1] and in experiment [2] were 6 µM and 0.03 µM, respectively.
